According to the supplement of paper PMC10567573:

B1: EPB41L3 (parent)
chain: FRFAPNHTKELEDKVIELHKSHRG
B2: KRT13 (parent)
chain: YGGGLGGGFGGGFAGGFVDFGACD

Variants of: B1
Test: protein stability index of a GFP-peptide fusion (GPS, HEK-293T) (PSI 1-6); higher = more stable
Conditions: c terminus: a fixed tail appended
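Note: lentivirally expressed fusions sorted by FACS into six bins by GFP to DsRed ratio, PSI derived from sequencing read proportions per bin multiplied by bin number.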

Protein stability index, by site and new letter:
L18: N 2.01 | V 1.93 | M 3.06 | H 1.82 | S 2.51 | R 2.75 | D 3.17 | F 1.73 | P 1.89
K20: Q 1.29 | Y 2.95 | P 2.64 | I 2.12 | E 2.84 | D 1.96 | C 2.09 | T 2.12 | H 2.44 | L 2.81
F1: N 3.62 | H 4.62 | V 3.08 | E 4.2 | W 2.26 | S 4.58 | C 2.93 | T 4.12 | M 3.68 | G 3.6 | Q 3.89 | Y 3.73
S21: K 1.74 | V 2.2 | Q 2.59 | D 2.56 | G 2.42 | I 2.25 | W 1.41 | T 2.47 | R 2.1
H7: F 1.73 | W 1.6 | K 1.88 | M 2.3 | S 1.93 | Q 2.28 | E 1.96 | P 2.1 | R 2.11 | L 1.62 | G 2.42 | V 1.85
K14: I 2.66 | Y 2.44 | S 1.97 | A 2.34 | P 1.86 | V 2.2 | F 1.8 | H 2.74 | R 1.97 | T 2.31 | L 1.78 | C 1.89 | Q 1.56 | E 2.53
G24: P 2.19 | A 1.93 | V 1.74 | L 2.02 | D 1.75 | C 1.36 | Y 1.56 | K 2.06
D13: G 3.4 | L 2.2 | N 2.79 | S 2.14 | Q 3.39 | Y 1.95 | F 1.52
L11: E 1.97 | A 1.54 | S 1.72 | H 2.29 | W 1.99 | P 1.87 | Q 2.25
R2: M 2.89 | F 2.81 | P 3.82 | T 3.79 | N 3.96 | L 2.78 | D 3.5 | K 3.81
H22: L 1.63 | E 2.52 | W 1.65 | G 1.91 | T 1.76 | V 1.67 | M 1.55 | D 2.48 | Q 2.01 | S 2.4
E17: Q 1.55 | S 2.12 | F 2.34 | T 1.86 | Y 2.66 | C 1.95 | N 2.29 | G 1.76
H19: I 1.83 | R 2.19 | M 2.05 | Y 1.88
P5: M 2.31 | T 2.44 | V 2.37 | S 1.92 | F 1.24 | Q 2.07
F3: W 2.97 | P 4.25 | D 4.48 | A 3.78 | E 4.57 | N 4.21 | R 3.6 | Y 2.28 | S 4.07 | G 4.63
I16: R 1.81 | Q 2.12 | G 1.98 | V 2.71 | H 2.09
T8: Y 2.05 | S 1.92 | K 2.39 | I 2.49 | V 1.98 | P 1.75 | A 2.11 | D 2.01 | F 2.3 | L 1.82 | M 2.21
E12: G 2.33 | W 2.97 | P 2.34 | F 2.17 | Q 2.09 | D 1.83 | M 1.75 | C 1.83
K9: T 1.37 | A 1.71 | S 2.88 | H 2.06 | V 2.24 | E 2.21 | D 1.82 | Y 1.99 | M 1.77
A4: H 2.42 | D 3.9 | N 3.77 | S 3.9 | E 2.87 | L 2.82 | G 3.08 | F 3.19 | Q 2.18
R23: A 2.07 | M 1.73 | Q 2.87 | G 3.6
N6: D 2 | M 1.83 | K 1.92 | L 2.37 | R 2.03
V15: L 2.69 | Y 1.99 | S 2.44 | K 2.19 | M 2.87 | Q 2.54
E10: Q 1.68 | M 1.69 | A 1.97 | T 1.84 | W 1.21 | R 1.95 | F 1.22 | K 2.59

Variants of: B2
Test: as above
Conditions: c terminus: a fixed tail appended

Protein stability index of substitutions, site by site:
D19: P 1.32 | V 2.61 | R 1.96 | K 2 | W 3.27 | G 2.41 | Y 2.33 | C 1.86 | T 1.95 | Q 1.41 | S 2.12 | A 3.27
C23: A 3.97 | H 2.2 | V 1.22 | W 1.84 | R 2.79 | Q 1.31 | L 1.72 | F 1.41 | N 1.76 | G 1.83 | K 2.01 | M 1.49 | I 1.53 | D 1.31 | S 1.92 | P 1.8 | E 2.14 | Y 1.6 | T 1.81
F17: M 2.11 | G 1.68 | R 1.57 | N 2.55 | A 2.07 | I 1.23 | Q 1.93 | T 1.77 | C 2.18 | E 2.44 | P 1.81 | S 1.89 | V 2.37 | L 1.09 | D 2.43 | H 2.06 | Y 2.01 | K 1.96
G21: H 1.93 | T 2.69 | C 1 | N 1.68 | D 1.92 | K 1.93 | F 2.87 | V 1.6 | P 1.67 | R 2.37 | S 2.02 | M 2.21 | A 2.25 | Q 1.76 | E 1.88 | W 1.99 | I 1.99 | Y 3.5
D24: E 2.57 | H 1.49 | N 3.54 | V 2.45 | P 1.85 | R 2.16 | T 1.91 | K 1.43 | I 5.23 | Q 1.91 | S 2.43 | W 3.82 | F 2.17
F20: S 1.82 | L 1.56 | Y 1.5 | E 2.18 | K 2.11 | V 1.36 | N 2.31 | Q 2.36 | I 1.27 | D 2.19 | P 1.69 | W 2.62 | H 2.69 | A 1.69 | G 1.75 | T 2.22 | M 1.53 | R 1.78
G16: Y 2.16 | W 3.21
A22: N 1.95 | H 1.54 | Q 2.34 | W 1.75 | T 1.9 | P 2.27 | V 2.4 | M 2.09 | L 1.2 | Y 1.99 | C 1.9 | S 1.2 | D 1.42 | F 2.1 | E 1.92 | K 1.98 | I 1.33
V18: I 1.6 | K 2.09 | P 1.96 | Y 1.58 | Q 1.92 | R 2.95 | S 3.77 | H 2.44 | C 1.38 | D 1.93 | W 2.79 | L 1.38 | T 2.17 | A 2.34 | G 3.27 | N 1.5 | E 1.78 | M 1.65
